According to patent US20220151976A1 (UNIVERSITY OF TOLEDO, published 2022):

Columns and labels:
[1] = target: T1, Eukaryotic initiation factor 4A (eIF4A1), endogenous in 231S cells (human, UniProt P60842 2-406); assay: proximity ligation assay in 231S cells, CXCL12 5 min against unstimulated
T1 construct: Endogenous intracellular protein; eIF4A1 antibody (Cohesion CQA1180) used in PLA and IP, eIF4A C32B4 in Western blots
Description: 100 nM AMD3465 was added 30 min prior to stimulation. […] Representative images of the PLA experiment are provided. Quantification indicates the average number of interactions/cell across multiple independent fields.

[2] = target: T1, Eukaryotic initiation factor 4A …; assay: reciprocal co-immunoprecipitation (LASP1 IP, eIF4A blot) from 231S lysate, densitometry against 0 min
Description: (§1) 1 mg of total protein lysate was employed in all immunoprecipitation reactions. eIF4B was immunoprecipitated by using 2 μg of eIF4B antibody (Cell Signaling Technology, Danvers, Mass., Cat. No. 13088). Mouse (G3A1) mAb IgG1 Isotype Control (Cell Signaling Technology, Danvers, Mass., Cat. No. 5415) served as the mock control. Next, eIF4A was immunoprecipitated using 2 μg of eIF4A1 antibody (Cohesion Biosciences, London, Purley, Cat. No. CQA1180). His-Tag (D3L10) XP® Rabbit mAb (Cell Signaling Technology, Danvers, Mass., Cat. No. 12698) was employed for the mock condition. […] As in the eIF4B Co-IP, mouse (G3A1) IgG1 isotype mAb was employed as the mock control. Prior to immunoprecipitation, lysates were pre-cleared with 20 μL of PureProteome™ Protein G Magnetic Beads (Millipore, Billerica, Mass., Cat. No. LSKMAGG10) for 2 H at 4° C. Immunoprecipitation reactions were then allowed to proceed with 20 μL of protein G magnetic beads and the appropriate amount of antibody for 2 h at 4° C. Beads were washed thrice with Co-IP buffer. To avoid heavy chain contamination (55 kDa) in the eIF4A Co-IP, antibodies were cross-linked using BS³ (according to Millipore recommendations). Proteins of interest were analyzed by sodium dodecyl sulfate-polyacrylamide gel electrophoresis (SDS-PAGE) and Western blotting.

[3] = target: T2, Eukaryotic initiation factor 4B (eIF4B), endogenous in 231S cells (human, UniProt P23588 1-611); assay: reciprocal co-immunoprecipitation (LASP1 IP, eIF4B blot) from 231S lysate, densitometry against 0 min
T2 construct: Endogenous protein in lysate
T2 sequence (P23588 whole entry): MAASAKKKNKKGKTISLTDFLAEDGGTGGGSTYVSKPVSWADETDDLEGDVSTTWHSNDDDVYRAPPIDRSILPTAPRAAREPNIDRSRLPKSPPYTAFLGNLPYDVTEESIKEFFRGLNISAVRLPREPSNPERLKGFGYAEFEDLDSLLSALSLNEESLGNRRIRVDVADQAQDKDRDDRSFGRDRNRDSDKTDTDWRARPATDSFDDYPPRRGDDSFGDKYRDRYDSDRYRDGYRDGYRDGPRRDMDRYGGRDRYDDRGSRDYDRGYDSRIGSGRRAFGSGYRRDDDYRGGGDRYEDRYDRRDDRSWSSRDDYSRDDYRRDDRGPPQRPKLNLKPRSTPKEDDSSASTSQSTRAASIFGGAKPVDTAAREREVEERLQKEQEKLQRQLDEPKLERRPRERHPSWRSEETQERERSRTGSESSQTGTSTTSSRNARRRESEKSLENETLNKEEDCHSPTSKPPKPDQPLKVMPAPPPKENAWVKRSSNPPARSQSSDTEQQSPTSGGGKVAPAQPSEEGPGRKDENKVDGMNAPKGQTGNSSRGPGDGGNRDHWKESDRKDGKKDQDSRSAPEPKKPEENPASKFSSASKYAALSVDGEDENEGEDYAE
Description: as §1

[4] = target: eIF4E, endogenous in 231S cells (human) (UniProt P06730); assay: m7GTP pulldown from 231S lysate after CXCL12, LASP1/eIF4E densitometry against 0 min; association may be through the complex
Chain of eIF4E, endogenous in 231S cells (human) (P06730 2-217 limits assumed): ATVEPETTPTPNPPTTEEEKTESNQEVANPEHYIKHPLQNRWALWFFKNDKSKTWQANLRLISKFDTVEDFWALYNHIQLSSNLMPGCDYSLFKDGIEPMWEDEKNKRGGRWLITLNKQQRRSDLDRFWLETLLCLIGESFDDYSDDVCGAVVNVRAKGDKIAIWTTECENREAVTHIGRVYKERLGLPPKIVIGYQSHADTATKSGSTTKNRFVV

T1 sequence (P60842 2-406 limits assumed): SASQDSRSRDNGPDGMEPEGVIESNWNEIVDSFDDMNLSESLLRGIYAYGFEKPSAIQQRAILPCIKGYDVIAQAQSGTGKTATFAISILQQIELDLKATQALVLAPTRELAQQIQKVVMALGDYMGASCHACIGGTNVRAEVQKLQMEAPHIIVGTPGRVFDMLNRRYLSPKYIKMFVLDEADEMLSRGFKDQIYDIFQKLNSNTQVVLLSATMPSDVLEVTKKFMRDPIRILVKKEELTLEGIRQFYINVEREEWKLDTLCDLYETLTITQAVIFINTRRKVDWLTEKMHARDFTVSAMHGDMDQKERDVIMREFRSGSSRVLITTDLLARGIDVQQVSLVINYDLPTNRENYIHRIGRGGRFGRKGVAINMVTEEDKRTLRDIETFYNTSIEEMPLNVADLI

fold stimulation of the interaction [1]: 3 fold | fold increase in association [2]: 19.1 fold | fold increase in association [3]: 7.5 fold | fold increase in association [4]: 2.2 fold
B1: LIM and SH3 Protein 1 (LASP1), endogenous in 231S cells (other, human, UniProt Q14847 1-261, looked up)
chain: MNPNCARCGKIVYPTEKVNCLDKFWHKACFHCETCKMTLNMKNYKGYEKKPYCNAHYPKQSFTMVADTPENLRLKQQSELQSQVRYKEEFEKNKGKGFSVVADTPELQRIKKTQDQISNIKYHEEFEKSRMGPSGGEGMEPERRDSQDGSSYRRPLEQQQPHHIPTSAPVYQQPQQQPVAQSYGGYKEPAAPVSIQRSAPGGGGKRYRAVYDYSAADEDEVSFQDGDTIVNVQQIDDGWMYGTVERTGDTGMLPANYVEAI
notes: Endogenous intracellular protein; detected or immunoprecipitated with mouse LASP1 antibody 8C6 (Biolegend 909301); also called endogenous LASP1
